Data published in US20040071661A1.

Target: LCMV glycoprotein GP33-41 epitope presented by the histocompatibility molecules H-2D^b (LCMV virus; mouse (C57BL/6)) (UniProt P09991)
Test: cell-based or functional assay

“T receptor (TCR Vα2 Vβ8) specific for the GP33-41 epitope, on CD8 T lymphocytes of TCR-transgenic C57BL/6 mice” gave a % CD44^hi effector - memory, of CD8+ TCR Vα2 T cells, 7 days after injection of H293-341-LCMV.GP particle supernatant (control H293-341: 37.6) of 63.9% and a CD44^lo (naïve), percent of CD8+ TCR Vα2 T cells, 7 days after injection of H293-341-LCMV.GP particle supernatant (control H293-341: 57.6) of 24.5%.
